The record followed here is patent US20210230295A1 (HANGZHOU SUMGEN BIOTECH, published 2021).

Test [1] deals with T1, AXL on the surface of human tumor cells (human, UniProt P30530 26-894).
T1 sequence: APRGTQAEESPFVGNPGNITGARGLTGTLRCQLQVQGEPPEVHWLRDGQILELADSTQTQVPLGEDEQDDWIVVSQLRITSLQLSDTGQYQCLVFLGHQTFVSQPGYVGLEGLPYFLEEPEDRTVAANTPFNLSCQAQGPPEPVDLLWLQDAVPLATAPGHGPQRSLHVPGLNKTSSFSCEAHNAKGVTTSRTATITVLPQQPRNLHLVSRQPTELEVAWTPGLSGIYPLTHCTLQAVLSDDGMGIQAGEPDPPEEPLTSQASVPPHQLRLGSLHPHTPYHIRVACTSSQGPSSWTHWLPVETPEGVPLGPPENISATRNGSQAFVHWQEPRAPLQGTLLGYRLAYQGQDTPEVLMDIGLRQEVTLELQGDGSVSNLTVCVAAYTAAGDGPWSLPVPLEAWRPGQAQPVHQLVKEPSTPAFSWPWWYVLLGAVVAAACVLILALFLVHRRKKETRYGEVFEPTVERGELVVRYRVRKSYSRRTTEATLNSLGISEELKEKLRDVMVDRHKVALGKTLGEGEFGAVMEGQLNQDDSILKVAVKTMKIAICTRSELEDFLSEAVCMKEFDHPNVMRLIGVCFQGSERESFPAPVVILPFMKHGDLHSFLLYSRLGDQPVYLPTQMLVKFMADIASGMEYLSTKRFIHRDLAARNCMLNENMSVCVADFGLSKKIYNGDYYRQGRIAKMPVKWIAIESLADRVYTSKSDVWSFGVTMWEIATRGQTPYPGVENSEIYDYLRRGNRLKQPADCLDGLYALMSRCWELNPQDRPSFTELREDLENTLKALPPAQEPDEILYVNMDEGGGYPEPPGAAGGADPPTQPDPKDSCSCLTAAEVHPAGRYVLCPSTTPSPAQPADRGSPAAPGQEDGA
Nature of the test: cell-based or functional assay.

The target in test [2] is T2, AXL-Fc (fusion protein of human AXL protein extracellular domain-human IgG1 Fc) (human).
T2 construct: Expressed in CHO-K1 cells
Nature of the test: ELISA, AXL-Fc coated at 1 ug/ml, anti-human Fab-HRP detection. Here is the method: The AXL-Fc prepared in Example 1 was coated on the ELISA plate at 1 μg/ml at 4° C. overnight. After washing with PBST, 10% fetal bovine serum was added and blocked at 37° C. for 1 hour. Different concentrations of the C6G12 antibody prepared in Example 3 were added and reacted at 37° C. for 1 hour. After washing with PBST, horseradish peroxidase-labeled goat anti-human Fab secondary antibody (Goat Anti-human IgG(Fab′)2 (HRP), Abcam) was added and reacted at 37° C. for 30 minutes. The plate was repeatedly washed with PBST for 5 times, and dried to remove residual droplets as possible by absorbent paper. 100 μl of TMB (eBioscience) was added to each well, and stood at room temperature (20±5° C.) in the dark for 1.5 minutes. 100 μl of 2N H₂SO₄ stop solution was added to each well to stop the substrate reaction. The OD value was read with a microplate reader at 450 nm. The binding ability of the C6G12 antibody to AXL-Fc was analyzed.

Test [3] addresses T3, AXL (Beijing Yiqiao Shenzhou Bio Technology Co., Ltd., 6xHis label, with a molecular weight of 65 Kda) (UniProt P30530 33-449).
T3 construct: Bought protein used as the mobile phase in BIACORE; not shown: 6xHis label
T3 sequence (looked up): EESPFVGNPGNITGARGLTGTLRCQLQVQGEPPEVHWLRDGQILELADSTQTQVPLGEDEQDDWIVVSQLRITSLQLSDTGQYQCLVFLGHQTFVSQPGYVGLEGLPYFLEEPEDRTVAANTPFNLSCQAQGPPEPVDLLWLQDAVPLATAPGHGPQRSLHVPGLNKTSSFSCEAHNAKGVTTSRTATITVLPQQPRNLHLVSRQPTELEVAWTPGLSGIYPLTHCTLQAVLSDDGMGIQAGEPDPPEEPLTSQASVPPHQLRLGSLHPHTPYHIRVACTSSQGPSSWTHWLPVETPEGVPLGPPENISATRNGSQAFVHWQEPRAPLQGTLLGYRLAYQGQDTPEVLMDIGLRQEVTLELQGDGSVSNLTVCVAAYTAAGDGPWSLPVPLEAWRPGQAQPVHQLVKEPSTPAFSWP
Nature of the test: SPR (BIACORE), C6G12 captured by anti-human IgG-Fc antibody, AXL-His as mobile phase. As for the experimental part: The antibody affinity was analyzed by BIACORE biomacromolecule interaction analyzer (GE Company). The anti-human IgG-Fc antibody (purchased from Abcam) was coupled to the chip, and used to capture the C6G12 antibody with an antibody concentration set as 0.5 μg/mL and an injection time of 60 seconds. AXL (Beijing Yiqiao Shenzhou Bio Technology Co., Ltd., 6×His label, with a molecular weight of 65 Kda) was taken as the mobile phase, with 6 concentration gradients (1, 0.4, 0.16, 0.064, 0.0256, 0.01024 μg/mL), a binding time of 180 seconds, and a dissociation time of 1200 seconds.
(Surface plasmon resonance follows binding to a sensor surface in real time, without labels.)

The target in test [4] is T4, CD38 (Beijing Yiqiao Shenzhou Biotechnology Co., Ltd.) (UniProt P28907 43-300).
T4 sequence (looked up): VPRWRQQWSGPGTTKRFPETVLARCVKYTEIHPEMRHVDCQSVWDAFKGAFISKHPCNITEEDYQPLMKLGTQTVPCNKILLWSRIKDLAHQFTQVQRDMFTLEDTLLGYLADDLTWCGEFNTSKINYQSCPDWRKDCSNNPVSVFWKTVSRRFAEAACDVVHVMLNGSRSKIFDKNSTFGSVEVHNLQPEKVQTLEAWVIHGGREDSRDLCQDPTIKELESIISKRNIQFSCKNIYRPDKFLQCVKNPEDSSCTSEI
Nature of the test: ELISA, protein coated at 1 ug/ml, OD 450 nm. As for the experimental part: (§1) Milk (Beijing Bomed Biotechnology Co., Ltd.), BSA (BOVOGEN), CD19 (Beijing Yiqiao Shenzhou Biotechnology Co., Ltd.), TROP2 (Beijing Yiqiao Shenzhou Biotechnology Co., Ltd.), BCMA (ACRO Biosystems), CD47 (Beijing Magpel Biotechnology Co., Ltd.), CD38 (Beijing Yiqiao Shenzhou Biotechnology Co., Ltd.), Gas6 (R&D) and each protein and AXL (ACRO Biosystems) were coated with ELISA plates at 1 μg/ml at 4° C. overnight, respectively. After washing with PBST, 10% fetal bovine serum was added and blocked at 37° C. for 1 hour. The C6G12 antibody prepared in Example 3 was added and reacted at 37° C. for 1 hour. After washing with PBST, horseradish peroxidase labeled goat anti-human IgG secondary antibody (GOAT Anti human (HRP), Thermo Fisher Scientific, #31412) was added and reacted at room temperature for 30 minutes. The plates were repeatedly washed with PBST for 5 times, and dried the residual droplets as possible on absorbent paper. […] (eBioscience, #85-00-420) was added and stood at room temperature (20±5 ) in the dark for 1.5 minutes. […] stop solution was added to each well to stop the substrate reaction. The OD value was read with a microplate reader at 450 nm. The binding abilities of antibodies and proteins were analyzed.

A further test addresses T5, BCMA (ACRO Biosystems) (UniProt Q02223 1-54).
T5 sequence (looked up): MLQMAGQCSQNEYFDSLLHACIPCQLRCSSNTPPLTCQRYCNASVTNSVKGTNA
Nature of the test: ELISA, protein coated at 1 ug/ml, OD 450 nm. As for the experimental part: as §1
On the technique in general: In an ELISA, binding on a coated surface is turned into a signal by an enzyme label.

Test [5] addresses CD47 (Beijing Magpel Biotechnology Co., Ltd.) (UniProt Q08722 19-139, limits assumed). Nature of the test: ELISA, protein coated at 1 ug/ml, OD 450 nm. As for the experimental part: as §1
In a further test the target is T6, BSA (BOVOGEN) (UniProt P02769 25-607).
T6 construct: Specificity control
Nature of the test: ELISA, protein coated at 1 ug/ml, OD 450 nm. Here is the method:
as §1

The target in test [6] is T7, CD19 (Beijing Yiqiao Shenzhou Biotechnology Co., Ltd.) (UniProt P15391 20-291).
T7 sequence (looked up): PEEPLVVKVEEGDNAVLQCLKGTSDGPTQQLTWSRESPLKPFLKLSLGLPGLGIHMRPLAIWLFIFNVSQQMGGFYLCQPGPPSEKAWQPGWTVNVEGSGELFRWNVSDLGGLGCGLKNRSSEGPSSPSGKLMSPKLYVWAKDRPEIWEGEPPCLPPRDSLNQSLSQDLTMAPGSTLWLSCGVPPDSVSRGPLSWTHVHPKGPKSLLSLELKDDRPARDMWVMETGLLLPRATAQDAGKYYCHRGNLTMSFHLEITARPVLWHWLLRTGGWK
Nature of the test: ELISA, protein coated at 1 ug/ml, OD 450 nm. As for the experimental part: as §1

The target in test [7] is T8, TROP2 (Beijing Yiqiao Shenzhou Biotechnology Co., Ltd.) (UniProt P09758 27-274).
T8 sequence (looked up): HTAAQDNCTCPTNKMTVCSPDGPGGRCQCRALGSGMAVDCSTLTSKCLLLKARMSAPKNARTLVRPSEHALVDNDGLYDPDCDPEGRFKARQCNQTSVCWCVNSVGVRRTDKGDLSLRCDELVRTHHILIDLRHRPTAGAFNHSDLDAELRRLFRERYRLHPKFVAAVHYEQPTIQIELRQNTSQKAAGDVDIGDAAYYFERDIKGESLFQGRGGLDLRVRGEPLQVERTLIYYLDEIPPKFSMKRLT
Nature of the test: ELISA, protein coated at 1 ug/ml, OD 450 nm. As for the experimental part: as §1

In a further test the target is T9, Gas6 (R&D) (UniProt Q14393 49-678, limits assumed).
T9 sequence (looked up): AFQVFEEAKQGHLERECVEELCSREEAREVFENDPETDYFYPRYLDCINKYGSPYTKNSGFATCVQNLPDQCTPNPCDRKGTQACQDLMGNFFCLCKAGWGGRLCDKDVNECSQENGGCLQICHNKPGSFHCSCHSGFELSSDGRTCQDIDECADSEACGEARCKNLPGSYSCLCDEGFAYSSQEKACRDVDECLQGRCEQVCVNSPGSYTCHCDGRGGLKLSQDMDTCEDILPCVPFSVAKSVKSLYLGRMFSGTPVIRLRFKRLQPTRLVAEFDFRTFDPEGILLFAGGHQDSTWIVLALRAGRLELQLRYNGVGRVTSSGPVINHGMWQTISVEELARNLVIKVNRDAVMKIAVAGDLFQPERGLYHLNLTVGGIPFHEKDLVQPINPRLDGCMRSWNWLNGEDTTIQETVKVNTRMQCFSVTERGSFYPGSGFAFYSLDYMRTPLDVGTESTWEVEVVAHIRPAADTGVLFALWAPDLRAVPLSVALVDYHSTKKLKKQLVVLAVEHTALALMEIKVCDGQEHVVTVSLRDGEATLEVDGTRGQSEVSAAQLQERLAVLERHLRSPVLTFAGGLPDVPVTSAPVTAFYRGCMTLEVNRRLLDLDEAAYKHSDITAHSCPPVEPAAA
Nature of the test: ELISA, protein coated at 1 ug/ml, OD 450 nm. As for the experimental part: as §1

Test [8] concerns the target T2, AXL-Fc (fusion protein of human AXL …). Nature of the test: ELISA, AXL-Fc coated at 1 ug/ml, anti-mouse IgG-HRP detection. As for the experimental part: The AXL-Fc prepared in Example 1 was coated on the ELISA plate at 1 μg/ml at 4° C. overnight. After washing with PBST, 10% fetal bovine serum was added and blocked at 37° C. for 1 hour. Different concentrations of the 6G12 antibodies were added and reacted at 37° C. for 1 hour. After washing with PBST, horseradish peroxidase-labeled goat anti-mouse secondary antibody (Goat Anti-mouse IgGHRP, Abcam) was added and reacted at 37° C. for 30 minutes. The plate was repeatedly washed with PBST for 5 times, and dried to remove residual droplets as possible by absorbent paper. 100 μl of TMB (eBioscience) was added into each well, and stood at room temperature (20±5 ) in the dark for 1.5 minutes. 100 μl of 2N H₂SO₄ stop solution was added to each well to stop the substrate reaction. The OD value was read with a microplate reader at 450 nm. The binding ability of the antibody to AXL-Fc was analyzed.

T6 sequence (P02769 25-607 limits assumed): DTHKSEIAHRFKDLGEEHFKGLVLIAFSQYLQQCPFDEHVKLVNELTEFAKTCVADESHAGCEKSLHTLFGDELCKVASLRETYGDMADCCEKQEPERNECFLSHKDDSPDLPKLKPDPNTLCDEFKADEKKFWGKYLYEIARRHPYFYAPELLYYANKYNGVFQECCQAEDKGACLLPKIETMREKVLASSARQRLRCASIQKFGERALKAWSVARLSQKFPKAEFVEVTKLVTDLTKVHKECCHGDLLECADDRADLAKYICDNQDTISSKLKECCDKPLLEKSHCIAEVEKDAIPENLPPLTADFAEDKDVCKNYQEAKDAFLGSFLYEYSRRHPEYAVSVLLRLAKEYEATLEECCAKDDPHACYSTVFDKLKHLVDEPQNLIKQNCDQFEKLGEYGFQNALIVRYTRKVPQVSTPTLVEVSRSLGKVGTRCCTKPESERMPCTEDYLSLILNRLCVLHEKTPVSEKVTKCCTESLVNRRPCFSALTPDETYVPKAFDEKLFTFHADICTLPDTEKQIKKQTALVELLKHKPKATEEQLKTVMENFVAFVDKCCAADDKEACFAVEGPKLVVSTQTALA
Sequence of CD47 (Beijing Magpel Biotechnology Co., Ltd.) (Q08722 19-139 limits assumed): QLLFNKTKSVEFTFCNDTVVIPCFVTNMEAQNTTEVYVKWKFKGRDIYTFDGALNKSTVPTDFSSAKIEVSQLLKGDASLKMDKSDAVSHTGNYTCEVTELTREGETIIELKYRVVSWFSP

B1: C6G12 antibody (Chimeric 6G12) (antibody, human IgG1, kappa, V domains shown)
VH: QVQLKQSGPGLVKPSQSLSLTCSVTGFSISSGYYWNWIRQFPGNKLEWMGYRSYDGSNNYNPSLKNRISITRDTSKNQFFLKLNSVTTEDTATYYCARGWLLHYTMDYWGQGTSVTVSS
VL: ELVMTQSPFSNAVTLGTSASISCRSSRSLLHSNGFTYLYWYLQKPGQSPQLLIYQMSNLASGVPDRFSSSGSGTDFTLRISRVEAEDVGVYYCGQNLELPLTFGAGTKLELKR
notes: 6G12 variable regions with a human IgG1 constant region, expressed in CHO-S cells and purified by Protein A; also called chimeric antibody
As to B1, the “internalization efficiency EC50 on human breast cancer MDA-MB-231 cells (flow cytometry, surface MFI at 4 C against 37 C)” value in [1] is 0.89 ng/mL. In addition, in test [1], the “internalization efficiency EC50 on human non-small cell lung cancer A549 cells (flow cytometry, surface MFI at 4 C against 37 C)” value turned out to be 0.61 ng/mL. Also, in test [1], the “internalization efficiency EC50 on human pancreatic cancer MIA PaCa-2 cells (flow cytometry, surface MFI at 4 C against 37 C)” value was determined as 1.3 ng/mL. For the same molecule, the “internalization efficiency EC50 on renal clear cell adenocarcinoma 786-O cells (flow cytometry, surface MFI at 4 C against 37 C)” value in test [1] amounted to 1.5 ng/mL. In [2], the EC50 – broadly, the midpoint of the concentration-response curve – worked out at 19.4 ng/mL. Moreover, the dissociation constant Kd (in general, a measure of binding affinity in units of concentration) in [3] was found to be 0.154 nM. Besides, the koff – broadly, a measure of how fast the partners let go of each other – in [3] came to 0.000402 s⁻¹. Besides, the kon – broadly, the second-order rate constant of association – in test [3] was 2.61e+06 M⁻¹ s⁻¹. In addition, the binding result (in test [4]; with BCMA (ACRO Biosystems); in test [5]; with BSA (BOVOGEN); in test [6]; in [7]) was “no binding” in each case. For the same molecule, the binding result in the test with Gas6 (R&D) is on record as “no binding”.

B2: 6G12 antibody (antibody, V domains shown)
VH: B1 VH
VL: ELVMTQSPFSNAVTLGTSASISCRSSRSLLHSNGFTYLYWYLQKPGQSPQLLIYQMSNLASGVPDRFSSSGSGTDFTLRISRVEAEDVGVYYCGQNLELPLTFGAGTKLELK
notes: also called monoclonal antibody 6G12
B2 had an EC50 in test [8] of 669 ng/mL.
